Data: patent US20100151486A1, “OSTEOPONTIN FUNCTIONAL EPITOPES, MONOCLONAL ANTIBODIES AGAINST THE EPITOPES AND USES THEREOF” (SHANGHAI NATIONAL ENGINEERING RESEARCH CENTER OF A, priority 2007, published 2010)

B1: humanized anti-hOPN antibody h1A12 (h1A12Hb/h1A12Lb) (antibody, human IgG1, kappa, V domains shown)
VH: QVQLVQSGAEVKKPGASVKVSCKSSGYTFTTYVMHWVKQAPGQGLEWIGYINPYNDGSKYNEKFKGRVTITSDKSASTAYMELSSLRSEDTAVYYCASHYGGSPAYWGQGTLVTVSS
VL: DVLMTQSPLSLPVTLGQPASISCRSSQSLVHSNGNTYLHWFQQRPGQSPKLLIYKVSNRFSGVPDRFSGSGSGTDFTLKISRVEAEDVGVYYCSQSTHVPWTFGGGTKVEIKR
notes: Tested as COS-1 supernatant in the ELISA; also called humanized antibody 1A12
B2: h1A12: humanized anti-hOPN mAb; VH SEQ ID NO: 19, VL SEQ ID NO: 21, human constant region (antibody, V domains shown)
VH: B1 VH
VL: B1 VL
modifications: human constant regions; amino acid sequence of the VH in humanized anti-OPN antibody H1A12; amino acid sequence of the VL in humanized anti-OPN antibody H1A12
B3: c1A12: chimeric anti-hOPN mAb between human and murine; VH SEQ ID NO: 4, VL SEQ ID NO: 6, human constant region (antibody, V domains shown)
VH: QVQLEQSGPELVKPGASVKMSCKSSGYTFTTYVMHWVKQKPGQGLEWIGYINPYNDGSKYNEKFKGKATLTSDKSSNTAYMELSSLTSEDSAVYYCASHYGGSPAYWGQGTLVTVSA
VL: DILMTQTPLSLPVSLGDQASISCRSSQSLVHSNGNTYLHWYLQKPGQSPKLLIYKVSNRFSGVPDRFSGSGSGTDFTLKISRVEAEDLGVYFCSQSTHVPWTFGGGTKLEIKR
modifications: human constant regions; amino acid sequence of the heavy chain variable region in 1A12; amino acid sequence of the light chain variable region in 1A12

Assays:
[1] = target: T1, human osteopontin (human OPN protein) (human, UniProt P10451 17-314, limits assumed); assay: ELISA, plate coated with OPN 2 ug/ml, COS-1 supernatant, HRP-rabbit anti-human IgG
T1 construct: The isoform follows from the 963 bp PCR fragment and is not otherwise stated; also called hOPN
T1 sequence (P10451 17-314 limits assumed): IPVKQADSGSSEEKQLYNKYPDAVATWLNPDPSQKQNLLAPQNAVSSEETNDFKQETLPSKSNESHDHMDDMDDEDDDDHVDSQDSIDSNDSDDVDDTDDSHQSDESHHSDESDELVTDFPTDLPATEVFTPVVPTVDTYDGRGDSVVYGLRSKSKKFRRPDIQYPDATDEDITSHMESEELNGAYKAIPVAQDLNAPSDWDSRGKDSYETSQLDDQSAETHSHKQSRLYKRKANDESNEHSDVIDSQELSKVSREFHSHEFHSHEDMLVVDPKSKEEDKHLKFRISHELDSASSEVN
Protocol: An ELISA plate was coated with 2 ug/ml OPN. The binding activity of the humanized antibody obtained from the transfection was detected by ELISA. […] The amino acid sequences of the h1A12HBb's and the h1A12Lb's variable regions were shown in FIG. 4, SEQ ID NO: 18 and SEQ ID NO: 19 show the nucleotide sequence and the amino acid sequence of h1A12Hb's variable region respectively. SEQ ID NO: 20 and SEQ ID NO: 21 show the nucleotide sequence and the amino acid sequence of h1A12Lb's variable region respectively. The genes of the humanized antibody's VH and VL (h1A12VHb/h1A12VLb) were synthesized respectively. […] Then, expression vectors of the light and the heavy chain were used to co-transfect the COS-1 cells. The antibody's antigen-binding activity was determined by ELISA. Specifically, an ELISA plate was coated with OPN protein (2 ug/ml) coated at 4° C. overnight, and was blocked with 2% BSA-PBS for 2 h at 37° C. […] HRP-rabbit anti-human IgG was added into the plate for binding reaction (incubated at 37° C. for 1 h).

MDA-MB-435s cells [2] = assay: Cell adhesion assay on hOPN-coated plate; type: cell-based; conditions: antibody 25 μg/ml; plate coated with 10 μg/ml hOPN; 2 hrs
Protocol: MDA-MB-435s was purchased from the Institute of Cell Biology of Chinese Academy of Sciences (Shanghai, China), and 23C3D3 was used as the irrelevant antibody.
A 96-well plate (Greiner) was coated with 10 μg/ml hOPN (prepared in Example 3) or BSA (SIGMA) at 4° C. overnight, and was then blocked with 1% BSA/PBS at 37° C. for 1 hour to block any non-specific binding sites. The MDA-MB-435s cells were detached using 0.2% EDTA and then re-suspended in 0.25% BSA/DMEM at the concentration of 5×10^5 cells/ml. To each well, 100 μl (5×10^4) MDA-MB-435s cells were added in the presence of various anti-OPN antibodies (25 μg/ml) murine anti-human OPN antibody 1A12, the human-murine chimeric antibody c 1A12 or the humanized antibody h1A12 as treatment groups and the irrelevant antibody 23C3 as control (25 μg/ml). After incubation at 37° C. for 2 hrs, the medium was removed and washed twice with PBS gently. The adherent cells were fixed in 1% formaldehyde at 4° C. for 10 minutes, stained with 0.5% crystal violet after washed with PBS and lysed with 2% Triton X-100 (50 μl). The absorbance was measured at 595 nm.

MDA-MB-435s cells [3] = assay: Cell invasion assay (Transwell, Matrigel); type: cell-based; conditions: antibody 25 μg/ml; in the presence of hOPN; 24 hours
Protocol: The assay of cell invasion was carried out using the Transwell system (Corning) with the pore size of […]. The basement membrane of the upper chamber was coated with the artificial matrix gel (Matrigel). After being dried in a flame hood, the matrigel was hydrated with DMEM at 37° C. for 1 hour. MDA-MB-435s cells were detached using 0.2% EDTA and suspended in 0.25% BSA/DMEM at the concentration of 5×10^5 cells/ml. 100 μl of the obtained cell suspension as well as the following 25 μg/nil of antibodies were respectively added into the upper chamber of each well: 1A12 (murine anti-human OPN antibody), c1A12 (human-mouse chimeric antibody), h1A12 (humanized antibody), and 23C3 (irrelevant antibody control). To lower chamber, 0.25% of BSA/DMEM (with or without OPN) was added. The system was then incubated in incubator at 37° C. for 24 hours. After that, the cells remaining in the upper chamber was wiped away using a cotton swab, and the cells penetrate through the basement membrane into the lower chamber were washed with PBS, fixed with 1% formaldehyde, and then stained with 0.5% crystal violet. The cells were counted in the field at 200× magnification under a microscope.

MDA-MB-435s cells [4] = assay: Scratch wound healing assay; type: cell-based; conditions: antibody 25 μg/ml; 24 hours
Protocol: The MDA-MB-435s cells cultured in a 12-wells plate to almost confluent (90%) washed with PBS and starved overnight with serum-free DMEM. Scratches were made on the cell monolayer using a 10 μl pipette, and PBS was added to wash away the floating cells. The test groups were treated with 25 μg/ml of the murine anti-human OPN antibody 1A12, the human-murine chimeric antibody c1A12 and the humanized antibody h1A12, and the control group, 25 μg/ml of the irrelevant antibody. The cells were incubated in an incubator at 37° C. for 24 hours. The result was expressed as the number of the cells that cross the base line.

MDA-MB-435s cells [5] = assay: Clone formation on soft agar assay; type: cell-based; conditions: antibody 25 μg/ml every other day; 3 weeks
Protocol: The assay of clone formation on soft agar was conducted using a double-layer soft agar system. 2.5% melted agar was mixed the DMEM medium pre-warmed at 37° C. to formulate a 0.5% agar solution, which was then diluted with DMEM to a 0.3% agar solution. To each well of a 24-well plate was added 500 μl of a 0.5% agar solution, which was allowed to gel at 4° C., and then kept warm in an incubator at 37°C. The MDA-MB-435s cells were detached using 0.2% .EDTA and suspended in the 0.3% agar solution at the concentration of 5×10^3 cells/ml. 500 μl of the cell suspension was added each well and left to gel. From the second day, the cells were respectively treated with 1A12, c1A12, h1A12 or the irrelevant antibody (23C3D3) (25 μg/ml) every other day. After 3 weeks, the colony formation ability was evaluated by measuring the size of colonies containing more than 10 cells.

[6] = system: human vascular endothelial cell (HUVEC); assay: HUVEC proliferation by 3H-TdR incorporation; type: cell-based; conditions: M200+1% BSA+OPN+antibody; 24 hours
Protocol: HUVEC cell proliferation was measured by the ^3H-TdR incorporation method to determine the protective effect of OPN on cell survival and the inhibitory effect of the anti-OPN antibodies on the OPN protection. Each well of a 96-well plate was inoculated with 2×10^4 HUVECs and cultured in a complete medium for 24 hours. The cells were then treated as following for 24 hours: […]
iv. M200+1% BSA+OPN+murine anti-OPN antibody 1A12 v. M200+1% , BSA+OPN+human-murine chimeric anti-OPN antibody c1A12 vi. M200+1% BSA+OPN+humanized anti-OPN antibody h1A12 vii. M200+1% BSA+OPN+irrelevant antibody
24 hours later, 1 uCi/well ^3H-thymidine was added and, after being incubated at 37° C. for 6 hours, washed once with PBS. The plate was treated with ice-cold 10% trichloroacetic acid/H2O at 4° C. for 10 min, and then washed for two times with, ice-cold ddH2O. Cytolysis was conducted by adding into each well 0.1 ml of 0.5 N NaOH, 0.5% SDS at room temperature for 10 min. After adding 0.2 ml of 0.5 N HCl and mixing, the cells were collected using a multiple cell collector.

HUVECs = assay: Formation of capillary-like structure in HUVECs on matrigel; type: cell-based, human
Protocol: HUVECs were cultured in the M200 medium containing LCGS to 80% confluence. The matrigel stored at −20° C. was took out the day before experiment and naturally thawed at 4° C. for 3 to 12 hours. To each well of a 96-welt plate was added […] using a pre-cooled pipet with carefully removing the bubbles, wherein the whole procedure was carried on ice. The loaded plate was incubated at 37° C. for 1 hour to gel the matrigel. To each well, 100 μl HUVECs (2×10^4/well) was gently added onto the surface of matrigel. To the treatment groups were further added the anti-hOPN antibodies 1A12, c1A12 and h1A12. The plate was incubated at 37° C. for […], and the formation of the capillary-like structure was observed 6 hours after.

rabbit cornea = assay: OPN-induced rabbit corneal neovascularization; type: in vivo; conditions: pellet with 200 ng hOPN and 1 μg antibody; for area of neovascularization / length of the newly generated blood vessels: relative to irrelevant antibody group, P<0,01
Protocol: The Hydron powder was dissolved in anhydrous ethanol under sterile condition to the final concentration of 12% (w/v), and dissolved with agitation under 37° C. to formulate the 12% Hydron cast solution, which was then stored at room temperature. A quota of sucralfate powder formulated in sterile Milli Q water under sterile conditions as a suspension with the final concentration of 100 μg/μl, which was stored at 4° C., and vortexed to homogeneous intermediately before use. Sustained-release pellets were prepared to each containing 200 ng hOPN and 50 μg sucralfate and, for the antibody groups, 1 μg anti-OPN antibodies, and for the control, the irrelevant antibody. The 12% Flydron east solution and the hOPN-sucralfate-PBS blend were mixed as the ratio of 1:1 (volume ratio), vortexed for 1 min. Then 5 μl mixed Hydron-sucralfate-hOPN solution was added onto a sterilized Parafilm surface, dried for about 30 min on a super-clean bench for a complete polymerization. The polymers were then shaped into uniform circular granules with a 2 mm diameter using an eye tweezers. The granules were stored at −20′C. Animals were grouped in the same way as in Experiment II-3, each group consisting of four eyes.
The rabbit was anesthetized at ear edge vein with 3% sodium pentobarbital (1 ml/kg body weight) and on both corneal surfaces with 1% tetracaine. The thickness of the cornea was measured using an ultrasonic cornea thickness gauge. A 3 mm half-depth incision was made at the center of the cornea using an ophthalmic knife, and an undermining tunnel toward the 12 o'clock or 3 o'clock position on the corneoscleral margin was made using a 2 mm-wide scleral tunnel knife, whereby the tunnel lied within the corneal layer with the top of the tunnel about 1 mm distant from the limbus corneae. The Hydron/sucralfate sustained-release pellet was implanted into the top of tunnel using micro-tweezers. The cuts were treated with chlortetracycline eye ointment after the surgery. From Day 1 after the surgery, the double-blinded observer observed the rabbit conical neovascularization under the slit-lamp each day, until the Day 10, The length (VL) and the vascular clock angle (CN, 30°=1CN) of the longest vessel were measured, and the area of neovascularization was calculated according to the following formula:
Area (mm^2)=0.2×π×VL (mm)×CN (mm)

Row | binding result [1] | Molecule | blocking of the binding between MDA-MB-435s cells and hOPN (MDA-MB-435s cells [2]) | blocking of invasion of the basement membrane by MDA-MB-435s (MDA-MB-435s cells [3]) | inhibition of the reparation of the scratches and damages (MDA-MB-435s cells [4]) | inhibition of clone size formed by MDA-MB-435s cells on soft agar (MDA-MB-435s cells [5]) | 3H-TdR incorporation relative to the OPN group [6] | potency of forming the capillary-like structure in HUVECs (HUVECs) | corneal neovascularization relative to the OPN group (rabbit cornea) | area of neovascularization (rabbit cornea) | length of the newly generated blood vessels (rabbit cornea)
1 | binds | B1 | – | – | – | – | – | – | – | – | –
2 | – | B2 | effectively block | effectively block | effectively inhibit | no significant differences | significantly lower | reduce | significantly reduced | significantly shrunk | significantly reduced
3 | – | B3 | effectively block | effectively block | effectively inhibit | no significant differences | significantly lower | reduce | significantly reduced | significantly shrunk | significantly reduced
